The source of these data is patent US20250145684A1 (IMMATICS BIOTECHNOLOGIES, published 2025).

The test has as its target T1, HLA-B*08:01 (human).
T1 construct: MHC monomer first loaded with a UV-sensitive peptide that is cleaved by UV light and exchanged for the test peptide
Put plainly: UV peptide exchange ELISA. From the text: Candidate peptides for T cell based therapies according to the present invention were further tested for their MHC binding capacity (affinity). The individual peptide-MHC complexes were produced by UV-ligand exchange, where a UV-sensitive peptide is cleaved upon UV-irradiation and exchanged with the peptide of interest as analyzed. Only peptide candidates that can effectively bind and stabilize the peptide-receptive MHC molecules prevent dissociation of the MHC complexes. To determine the yield of the exchange reaction, an ELISA was performed based on the detection of the light chain (β2m) of stabilized MHC complexes. The assay was performed as generally described in Rodenko et al. (Rodenko et al., 2006).
96 well MAXISorp plates (NUNC) were coated over night with 2 ug/ml streptavidin in PBS at room temperature, washed 4× and blocked for 1 h at 37° C. in 2% BSA containing blocking buffer. Refolded HLA-A*02:01/MLA-001 monomers served as standards, covering the range of 15-500 ng/ml. Peptide-MHC monomers of the UV-exchange reaction were diluted 100-fold in blocking buffer. Samples were incubated for 1 h at 37° C., washed four times, incubated with 2 ug/ml HRP conjugated anti-β2m for 1 h at 37° C., washed again and detected with TMB solution that is stopped with […]. Absorption was measured at 450 nm. Candidate peptides that show a high exchange yield (preferably higher than 50%, most preferred higher than 75%) are generally preferred for a generation and production of antibodies or fragments thereof, and/or T cell receptors or fragments thereof, as they show sufficient avidity to the MHC molecules and prevent dissociation of the MHC complexes.
(In general: In an ELISA, binding on a coated surface is turned into a signal by an enzyme label.)
Molecule MSPLLRSI [MSPLLRSI (SEQ ID NO: 204)] had a peptide exchange yield of 20 to 50%.

VAAARAVPV [VAAARAVPV (SEQ ID NO: 200)] showed a peptide exchange yield of 20 to 50%.

EVMAQFKEI [EVMAQFKEI (SEQ ID NO: 163)] displayed a peptide exchange yield of 20 to 50%.

Turning to MRFQQFLFA [MRFQQFLFA (SEQ ID NO: 175)], the peptide exchange yield was 10 to 20%.

In the case of YVSKPGAQL [YVSKPGAQL (SEQ ID NO: 183)], the peptide exchange yield is 20 to 50%.

YVIQRQSVL [YVIQRQSVL (SEQ ID NO: 176)] had a peptide exchange yield of 20 to 50%.

Molecule TASAMQHVL [TASAMQHVL (SEQ ID NO: 201)] returned a peptide exchange yield of 50 to 75%.

QIMPKAGL [QIMPKAGL (SEQ ID NO: 2)] had a peptide exchange yield of 50 to 75%.

HAMPSPRIL [HAMPSPRIL (SEQ ID NO: 174)]: the peptide exchange yield fell in the range of 20 to 50%.

For the molecule LPLTEHEL [LPLTEHEL (SEQ ID NO: 179)], the peptide exchange yield fell in the range of 50 to 75%.

LGGLRLTAL [LGGLRLTAL (SEQ ID NO: 193)] yielded a peptide exchange yield of 20 to 50%.

DIVPPFSAF [DIVPPFSAF (SEQ ID NO: 161)] came in with a peptide exchange yield of 20 to 50%.

LLILKTVL [LLILKTVL (SEQ ID NO: 17)] registered a peptide exchange yield of 50 to 75%.

Molecule LRKRKSPE [LRKRKSPE (SEQ ID NO: 207)] gave a peptide exchange yield of 20 to 50%.

Molecule EGNQKSVI [EGNQKSVI (SEQ ID NO: 195)] displayed a peptide exchange yield of 20 to 50%.

QPYRFPQA [QPYRFPQA (SEQ ID NO: 157)] registered a peptide exchange yield of 20 to 50%.

On to EEKHFTTL [EEKHFTTL (SEQ ID NO: 192)], for which the peptide exchange yield was 20 to 50%.

FTLLRRLSL [FTLLRRLSL (SEQ ID NO: 19)] returned a peptide exchange yield of 50 to 75%.

Regarding LPAPIPTLL [LPAPIPTLL (SEQ ID NO: 164)], the peptide exchange yield lay within 20 to 50%.

SVPVRSSPL [SVPVRSSPL (SEQ ID NO: 177)] had a peptide exchange yield of 20 to 50%.

On to EIMEKTTL [EIMEKTTL (SEQ ID NO: 188)], for which the peptide exchange yield was in the range of 20 to 50%.

Molecule ILKRFLAC [ILKRFLAC (SEQ ID NO: 20)] gave a peptide exchange yield of 50 to 75%.

Consider HVQDFTAF [HVQDFTAF (SEQ ID NO: 168)], for which the peptide exchange yield fell in the range of 20 to 50%.

As for DLRNKIIA [DLRNKIIA (SEQ ID NO: 159)], the peptide exchange yield is 20 to 50%.

In turn, DMKITVSL [DMKITVSL (SEQ ID NO: 167)] showed a peptide exchange yield of 50 to 75%.

Consider DRLKPLKM [DRLKPLKM (SEQ ID NO: 184)], for which the peptide exchange yield lay in the range of 20 to 50%.

In turn, LFKQTKINL [LFKQTKINL (SEQ ID NO: 162)] came in with a peptide exchange yield of 20 to 50%.

The molecule RPLKPGEVL [RPLKPGEVL (SEQ ID NO: 191)] yielded a peptide exchange yield of 20 to 50%.

The molecule LSLVRKAL [LSLVRKAL (SEQ ID NO: 18)] displayed a peptide exchange yield of 50 to 75%.

RIPEKASFL [RIPEKASFL (SEQ ID NO: 202)]: the peptide exchange yield fell in the range of 20 to 50%.

The molecule RAIEHVLQV [RAIEHVLQV (SEQ ID NO: 194)] yielded a peptide exchange yield of 50 to 75%.

In turn, MEFPNKFNTL [MEFPNKFNTL (SEQ ID NO: 206)] returned a peptide exchange yield of 20 to 50%.

For ELLNRIYF [ELLNRIYF (SEQ ID NO: 190)], the peptide exchange yield fell in the range of 20 to 50%.

Consider DVIIKGNGL [DVIIKGNGL (SEQ ID NO: 158)], for which the peptide exchange yield was 20 to 50%.

ILHLSAIAL [ILHLSAIAL (SEQ ID NO: 182)] returned a peptide exchange yield of no less than 75%.

QPNTHQLL [QPNTHQLL (SEQ ID NO: 210)] came in with a peptide exchange yield of 20 to 50%.

With NRKPRTPF [NRKPRTPF (SEQ ID NO: 16)], the peptide exchange yield lay in the range of 20 to 50%.

The molecule DVISKGVSL [DVISKGVSL (SEQ ID NO: 211)] returned a peptide exchange yield of 20 to 50%.

On to YKAYPSQL [YKAYPSQL (SEQ ID NO: 197)], for which the peptide exchange yield lay in the range of 20 to 50%.

YELNNLHAL [YELNNLHAL (SEQ ID NO: 169)] had a peptide exchange yield of 20 to 50%.

SPANVRGQSL [SPANVRGQSL (SEQ ID NO: 170)]: the peptide exchange yield is 20 to 50%.

As for MELKTVKPI [MELKTVKPI (SEQ ID NO: 185)], the peptide exchange yield lay within 20 to 50%.

In turn, YPLLKDPSL [YPLLKDPSL (SEQ ID NO: 173)] registered a peptide exchange yield of 50 to 75%.

For SRFGKFVQL [SRFGKFVQL (SEQ ID NO: 209)], the peptide exchange yield was 20 to 50%.

As for FPSQVPKQVL [FPSQVPKQVL (SEQ ID NO: 171)], the peptide exchange yield lay in the range of 20 to 50%.

As for LPINNTHI [LPINNTHI (SEQ ID NO: 160)], the peptide exchange yield was 20 to 50%.

RILKRFLAC [RILKRFLAC (SEQ ID NO: 21)] showed a peptide exchange yield of 50 to 75%.

The molecule PYEKVSRL [PYEKVSRL (SEQ ID NO: 172)] returned a peptide exchange yield of 20 to 50%.

In turn, APDNVLLTL [APDNVLLTL (SEQ ID NO: 189)] came in with a peptide exchange yield of 20 to 50%.

In turn, VPYNSVLF [VPYNSVLF (SEQ ID NO: 187)] registered a peptide exchange yield of 20 to 50%.

The molecule SIRSSYSRF [SIRSSYSRF (SEQ ID NO: 181)] returned a peptide exchange yield of 20 to 50%.

The molecule LAVPIFVAL [LAVPIFVAL (SEQ ID NO: 180)] returned a peptide exchange yield of 20 to 50%.

Consider VLSGGRILAL [VLSGGRILAL (SEQ ID NO: 166)], for which the peptide exchange yield fell in the range of 20 to 50%.

IPFIHLPEI [IPFIHLPEI (SEQ ID NO: 199)] yielded a peptide exchange yield of 20 to 50%.

The molecule IPRLAVISI [IPRLAVISI (SEQ ID NO: 178)] registered a peptide exchange yield of 20 to 50%.

LPPPQPLSL [LPPPQPLSL (SEQ ID NO: 208)] displayed a peptide exchange yield of 20 to 50%.

With DVYTQVSAF [DVYTQVSAF (SEQ ID NO: 203)], the peptide exchange yield is 20 to 50%.

Molecule DLISPRQPRL [DLISPRQPRL (SEQ ID NO: 186)] registered a peptide exchange yield of 20 to 50%.

In turn, LDLRQKVL [LDLRQKVL (SEQ ID NO: 196)] yielded a peptide exchange yield of 20 to 50%.

For FPLTSIIAI [FPLTSIIAI (SEQ ID NO: 198)], the peptide exchange yield was in the range of 50 to 75%.

Consider QNSLRHNL [QNSLRHNL (SEQ ID NO: 165)], for which the peptide exchange yield is 20 to 50%.

Molecule YMQYGFLSM [YMQYGFLSM (SEQ ID NO: 205)] gave a peptide exchange yield of 20 to 50%.
